Test [1] addresses T1, recombinant soluble trimeric 1918 H1 HA (A/South Carolina/1/1918, wild type) (Influenza A virus A/South …, UniProt Q9WFX3 18-529). The experiment in a line: ELISA, supernate.
Test [2] deals with T2, recombinant soluble 1968 H3 HA (A/Aichi/2/1968) (Influenza A virus A/Aichi/2/1968 (H3N2), UniProt P03437 17-530). The experiment in a line: ELISA, supernate.
Test [3] deals with HA of A/Hong Kong/1/1968 (H3N2) virus (Influenza A virus (H3N2), UniProt Q91MA7 17-566). The experiment in a line: cell-based or functional assay.
Test [4] has as its target HA of A/Alabama/1/1981 (H3N2) virus (Influenza A virus (H3N2)). The experiment in a line: cell-based or functional assay.
For test [5], the target named is T3, HA of A/California/04/2009 (H1N1) virus (Influenza A virus (H1N1)). Put plainly: cell-based or functional assay.
In test [6] the target is HA of A/Vietnam/1203/2004 (H5N1) virus (Influenza A virus (H5N1)). The experiment in a line: cell-based or functional assay.
Test [7] concerns the target T1, recombinant soluble trimeric 1918 H1 HA …. Put plainly: biolayer interferometry (Octet Red), His-tagged HA on anti-Penta-HIS tips.
Test [8] has the same target. Put plainly: ELISA, supernate. The source holds these as a separate data set.
Test [9] addresses T2, recombinant soluble 1968 H3 HA …. Put plainly: ELISA, supernate. The source holds these as a separate data set.
Test [10] addresses HA of A/South Carolina/1/1918 (H1N1), wild type, on VLP (Influenza A virus A/South …, UniProt Q9WFX3 18-566). The experiment in a line: cell-based or functional assay.
Test [11] addresses HA of A/swine/Iowa/15/1930 (H1N1) virus (Influenza A virus (H1N1)). The experiment in a line: cell-based or functional assay.
Test [12] concerns the target HA of A/Weiss/1943 (H1N1) virus (Influenza A virus (H1N1)). The experiment in a line: cell-based or functional assay.
Test [13] deals with HA of A/L3/1947 (H1N1) virus (Influenza A virus (H1N1)). Put plainly: cell-based or functional assay.
Test [14] deals with HA of A/New Jersey/11/1976 (H1N1) virus (Influenza A virus (H1N1)). The experiment in a line: cell-based or functional assay.
The target in test [15] is HA of A/USSR/92/1977 (H1N1) virus (Influenza A virus (H1N1)). Put plainly: cell-based or functional assay.
Test [16] addresses HA of A/New Caledonia/20/1999 (H1N1) virus (Influenza A virus (H1N1)). Put plainly: cell-based or functional assay.
In test [17] the target is HA of A/Brisbane/59/2007 (H1N1) virus (Influenza A virus (H1N1)). The experiment in a line: cell-based or functional assay.
Test [18] addresses T3, HA of A/California/04/2009 (H1N1) virus. The experiment in a line: cell-based or functional assay. The source holds these as a separate data set.
Test [19] deals with T2, recombinant soluble 1968 H3 HA …. Put plainly: ELISA, unconcentrated supernate.

Where two headings read alike, the source gives them in different places.

B1: mAb 7A13 (antibody, V domains shown)
VH: QVQLQESAPGLVKPSGTLSLTCAVSGASLSSSDWWTWVRQPPGKGLEWIGEIHHGGSTNSNPSLQSRVTISIDKSKKQFSLKLTSVTVADTAVYYCARAPGADAGPYSENIHHWGQGTLVTVS
VL: QLVLTQSPSASASLGASVKLTCTLSSRHSDYAIGWHQQQPGKGPRYLMKLNPDGSHTKGDGIPDRFSGSSSGAERYLTISNLLSEDEADYYCQTWGTGIQVFGGGTRLTVIS
Turning to B1, the OD in test [1] amounted to 0.076 OD; in test [2] it was 0.265 OD. For the same molecule, the HAI activity in test [3] was 0.7 µg/mL; in [4] it was over 20 µg/mL; in test [5], over 20 µg/mL; in test [6], over 20 µg/mL.

B2: mAb 11J19 (antibody, V domains shown)
VH: EVQLQESGPGLVKPSETLSLSCTVSGGSITRSSYYWGWIRQPPGKGLEWIGNIYYSGTTYYNPSLKSRVTISVDTSKNQFSLKLSSVTAADTAVYYCARLYGSGLDYWGQGTLVTVS
VL: DIQLTQSPSFLSASVGDRVTITCRASQGSSRYVAWYQQKPGKAPKLLILAASTLHTGVPSRFSGSGSGTEFTLTISSLQPEDFATYSCQQLNGFLLTFGGGTKVEIKR
For B2, the figures for the OD in [1] and in test [2] were 0.079 OD and 0.895 OD, respectively. The HAI activity in test [3] is 2.5 µg/mL; in [4], over 20 µg/mL; in [5], over 20 µg/mL; in test [6] it was over 20 µg/mL.

B3: 5J8 Fab (Fab, V domains shown)
VH: EVQLVESGPGLVKPSDILSLTCAVSGYSISSNYYWGWIRQPPGKGLEWIGSIYHSGSTYYKPSLESRLGISVDTSKNQFSLKLSFVSAADTAVYYCARHVRSGYPDTAYYFDKWGQGTLVTVS
VL: SYVLTQPPSVSVAPGETARISCGGNNIGTKVLHWYQQTPGQAPVLVVYDDSDRPSGIPERFSGSNSGNTATLTISRVEVGDEADYYCQVWDISTDQAVFGGGTKLTVLG
For the molecule B3, in test [7], the dissociation constant (Kd) was found to be 190 nM, the koff was 0.036 s⁻¹ and the kon turned out to be 200000 M⁻¹ s⁻¹.

B4: mAb 2O10 (antibody, V domains shown)
VH: EVQLVESGGGLVQPGGSLRLSCAASGFTFNSYWMTWVRQAPGKGLEWVANINQDGSEKFFVDSVKGRFTISRDNAKTSLYLQMNSLRVEDTAVYYCAREGAPYDTYYYYYAMDVWGQGTTVTVS
VL: QSVLTQPPSVSGAPGQRVTISCTGTSSNIGAGYGVHWYQQLPGAAPKLLVYGNSNRPSGVPDRFSGSKSGTSASLAITGLQAEDEADYYCQSYDISLSGSNVFGTGTKVTVLG
On to B4, for which the OD in test [8] came out at 0.308 OD; in test [9], 0.077 OD. Further, the HAI activity in test [10] is 0.04 µg/mL; in [11], 0.08 µg/mL; in [12] it was over 20 µg/mL; in [13] it was over 20 µg/mL; in test [14] it was 2.5 µg/mL; in test [15], 2.5 µg/mL. Moreover, the HAI activity was over 20 µg/mL in test [16], over 20 µg/mL in test [17] and 0.32 µg/mL in test [18]. Also, the binding result in test [19] is reported as “no binding”.

B5: mAb 2K11 (antibody, V domains shown)
VH: EVQLVESGGGLVQPGGSLRLSCVASTFSLINYWMTWVRQAPGKGLEWVANIKQDGFEKYYVDSVKGRFTISRDNAKNSLYLQMNSLRVEDTAVYYCARQGSYADTYFYHYGMDVWGQGTTVTVS
VL: QSALTQPPSVSGAPGQRVTISCTGSSSNIGAGYDAYWYQQLPGTAPKLLIYGNSNRLSGVPDRFSASKSGTSASLAITGLQAEDEADYYCQSYDSSLSIFGGGTKLTVLR
With B5, the OD in test [8] was 0.311 OD; in [9], 0.08 OD. Further, the HAI activity in test [10] was 0.16 µg/mL; in test [11], 0.16 µg/mL; in test [12] it was over 20 µg/mL; in test [13] it was over 20 µg/mL; in [14], 1.3 µg/mL; in test [15], 0.32 µg/mL. In addition, the HAI activity was over 20 µg/mL in test [16], over 20 µg/mL in test [17] and 0.63 µg/mL in test [18]. Besides, the binding result in test [19] is reported as “no binding”.

B6: mAb 25J3 (antibody, V domains shown)
VH: QVQLQESGPGLVRPSETLSLTCNVSGDSINDYYWSWIRQPPGKGLEWIGYIYYSGSTNYNPSLNSRVTISVEMSKNQFSLILNSVTAADTAVYYCARVDYDSGGSFDPWGQGTLVTVS
VL: QSVLTQPPSVSGAPGQRVTISCTGSSSNIGAGYDVHWYQQLPGTAPKLLIYGNSNRPSGVPDRFSGSKSGTSASLAITGLQAEDEADFYCQSYDSRLSGYVFGTGTKVTVLG
Consider B6, for which the OD in test [1] stood at 0.07 OD; in test [2], 0.623 OD.

B7: mAb 18G6 (antibody, V domains shown)
VH: QVQLKESGPGLVKPSETLSLTCTVSGGSISSSNYNWGWIRQPPGKGLEWIGSVYYSGSTYFNPSLKSRVTISVDTSKNQFSLKLTSVTAADTAVYYCARLIAFYYDTNGYTWGQGTLVTVS
VL: NSIMTQSPFTLSASVGDKVTITCRASQSISPWLAWYQQKPGKAPKLLIYKASSLETGVPSRFSGSESGTEFTLTISGLQPDDFATYYCQQYSSFARTFGQGTKVEIKR
For B7, the results for the OD in test [1] and in [2] were 0.075 OD and 0.073 OD, respectively.

B8: mAb 4A10 (antibody, V domains shown)
VH: EVQLVESGGGLVQPGGSLRLSCAASGFSFSSYWMTWVRQAPGKGLEWVANIKQYGSEKYYVDSVKGRFTISRDNAKNSLYLQMNSLRDDDTAVYYCARMGSYLDTYYYHYGMDVWGQGTTVTVS
VL: QSVLTQPPSLSGAPGQRVTISCTGSSSNIGADYDVYWYQHLPGTAPKLLMYGDGYRPSGVPDRFSGSKSGTSASLAITGLQAEDEADYYCQSYDSSLSRRVVFGGGTKLTVLG
On to B8, for which the OD in test [8] is 0.725 OD; in test [9], 0.072 OD. Moreover, the HAI activity in test [10] is 0.08 µg/mL; in test [11], 0.63 µg/mL; in [12] it was over 20 µg/mL; in test [13], over 20 µg/mL; in test [14] it was 2.5 µg/mL; in test [15], 0.32 µg/mL. Moreover, the HAI activity is over 20 µg/mL in test [16], over 20 µg/mL in test [17] and 0.16 µg/mL in test [18]. Further, the binding result in test [19] is listed as “no binding”.

For the origin of these results see US20130289246A1 (VANDERBILT UNIVERSITY, published 2013).
